Laboratory results as given in PMC11589706, “Cryo-EM structure of PML RBCC dimer reveals CC-mediated octopus-like nuclear body assembly mechanism” (Cell Discovery, 2024).

Experiments:
[1] = molecular target: the molecule itself; assay: SEC; analytical size exclusion on Superdex 200 Increase 10/300 GL in 20 mM HEPES, pH 7.4, 100 mM NaCl, 4% glycerol; all truncations N-terminally fused to MBP
[2] = molecular target: the molecule itself; assay: two-hybrid; CheckMate mammalian two-hybrid (Promega) in HeLa Pml-/- cells; pG5-luc, pBIND-PML and pACT-PML at 1:1:1; dual-luciferase read-out 24 h after transfection; normalised to pACT vector:pBIND-PML = 1

Row | Protein | binding result [1] | percent reduction of PML self-interaction (relative luciferase activity) compared to control [2]
1 | MBP-PML_(46–323) (domain or fragment, human, UniProt P29590 46-323, looked up, PML (TRIM19), human, residues 46-323; source: E. coli BL21(DE3), purified; not shown: MBP, N-terminal, kept) PASEEEFQFLRCQQCQAEAKCPKLLPCLHTLCSGCLEASGMQCPICQAPWPLGADTPALDNVFFESLQRRLSVYRQIVDAQAVCTRCKESADFWCFECEQLLCAKCFEAHQWFLKHEARPLAELRNQSVREFLDGTRKTNNIFCSNPNHRTPTLTSIYCRGCSKPLCCSCALLDSSHSELKCDISAEIQQRQEELDAMTQALQEQDSAFGAVHAQMHAAVGQLGRARAETEELIRERVRQVVAHVRAQERELLEAVDARYQRDYEEMASRLGRLDAVL | binds | 
2 | full-length PML L240R, mammalian two-hybrid fusions (natural protein, human, UniProt P29590-5 1-633, looked up, PML (TRIM19) isoform IV, full length, L240R; source: HeLa Pml-/- cells, transfected, mammalian two-hybrid fusion) MEPAPARSPRPQQDPARPQEPTMPPPETPSEGRQPSPSPSPTERAPASEEEFQFLRCQQCQAEAKCPKLLPCLHTLCSGCLEASGMQCPICQAPWPLGADTPALDNVFFESLQRRLSVYRQIVDAQAVCTRCKESADFWCFECEQLLCAKCFEAHQWFLKHEARPLAELRNQSVREFLDGTRKTNNIFCSNPNHRTPTLTSIYCRGCSKPLCCSCALLDSSHSELKCDISAEIQQRQEERDAMTQALQEQDSAFGAVHAQMHAAVGQLGRARAETEELIRERVRQVVAHVRAQERELLEAVDARYQRDYEEMASRLGRLDAVLQRIRTGSALVQRMKCYASDQEVLDMHGFLRQALCRLRQEEPQSLQAAVRTDGFDEFKVRLQDLSSCITQGKDAAVSKKASPEAASTPRDPIDVDLPEEAERVKAQVQALGLAEAQPMAVVQSVPGAHPVPVYAFSIKGPSYGEDVSNTTTAQKRKCSQTQCPRKVIKMESEEGKEARLARSSPEQPRPSTSKAVSPPHLDGPPSPRSPVIGSEVFLPNSNHVASGAGEAEERVVVISSSEDSDAENSSSRELDDSSSESSDLQLEGPSTLRVLDENLADPQAEDRPLVFFDLKIDNESGFSWGYPHPFLI |  | 83.9%
3 | full-length PML I279R, mammalian two-hybrid fusions (natural protein, human, UniProt P29590-5 1-633, looked up, PML (TRIM19) isoform IV, full length, I279R; source: HeLa Pml-/- cells, transfected, mammalian two-hybrid fusion) MEPAPARSPRPQQDPARPQEPTMPPPETPSEGRQPSPSPSPTERAPASEEEFQFLRCQQCQAEAKCPKLLPCLHTLCSGCLEASGMQCPICQAPWPLGADTPALDNVFFESLQRRLSVYRQIVDAQAVCTRCKESADFWCFECEQLLCAKCFEAHQWFLKHEARPLAELRNQSVREFLDGTRKTNNIFCSNPNHRTPTLTSIYCRGCSKPLCCSCALLDSSHSELKCDISAEIQQRQEELDAMTQALQEQDSAFGAVHAQMHAAVGQLGRARAETEELRRERVRQVVAHVRAQERELLEAVDARYQRDYEEMASRLGRLDAVLQRIRTGSALVQRMKCYASDQEVLDMHGFLRQALCRLRQEEPQSLQAAVRTDGFDEFKVRLQDLSSCITQGKDAAVSKKASPEAASTPRDPIDVDLPEEAERVKAQVQALGLAEAQPMAVVQSVPGAHPVPVYAFSIKGPSYGEDVSNTTTAQKRKCSQTQCPRKVIKMESEEGKEARLARSSPEQPRPSTSKAVSPPHLDGPPSPRSPVIGSEVFLPNSNHVASGAGEAEERVVVISSSEDSDAENSSSRELDDSSSESSDLQLEGPSTLRVLDENLADPQAEDRPLVFFDLKIDNESGFSWGYPHPFLI |  | 73.7%
4 | full-length PML L178R, mammalian two-hybrid fusions (natural protein, human, UniProt P29590-5 1-633, looked up, PML (TRIM19) isoform IV, full length, L178R; source: HeLa Pml-/- cells, transfected, mammalian two-hybrid fusion) MEPAPARSPRPQQDPARPQEPTMPPPETPSEGRQPSPSPSPTERAPASEEEFQFLRCQQCQAEAKCPKLLPCLHTLCSGCLEASGMQCPICQAPWPLGADTPALDNVFFESLQRRLSVYRQIVDAQAVCTRCKESADFWCFECEQLLCAKCFEAHQWFLKHEARPLAELRNQSVREFRDGTRKTNNIFCSNPNHRTPTLTSIYCRGCSKPLCCSCALLDSSHSELKCDISAEIQQRQEELDAMTQALQEQDSAFGAVHAQMHAAVGQLGRARAETEELIRERVRQVVAHVRAQERELLEAVDARYQRDYEEMASRLGRLDAVLQRIRTGSALVQRMKCYASDQEVLDMHGFLRQALCRLRQEEPQSLQAAVRTDGFDEFKVRLQDLSSCITQGKDAAVSKKASPEAASTPRDPIDVDLPEEAERVKAQVQALGLAEAQPMAVVQSVPGAHPVPVYAFSIKGPSYGEDVSNTTTAQKRKCSQTQCPRKVIKMESEEGKEARLARSSPEQPRPSTSKAVSPPHLDGPPSPRSPVIGSEVFLPNSNHVASGAGEAEERVVVISSSEDSDAENSSSRELDDSSSESSDLQLEGPSTLRVLDENLADPQAEDRPLVFFDLKIDNESGFSWGYPHPFLI |  | 44.9%
5 | full-length PML L247R, mammalian two-hybrid fusions (natural protein, human, UniProt P29590-5 1-633, looked up, PML (TRIM19) isoform IV, full length, L247R; source: HeLa Pml-/- cells, transfected, mammalian two-hybrid fusion) MEPAPARSPRPQQDPARPQEPTMPPPETPSEGRQPSPSPSPTERAPASEEEFQFLRCQQCQAEAKCPKLLPCLHTLCSGCLEASGMQCPICQAPWPLGADTPALDNVFFESLQRRLSVYRQIVDAQAVCTRCKESADFWCFECEQLLCAKCFEAHQWFLKHEARPLAELRNQSVREFLDGTRKTNNIFCSNPNHRTPTLTSIYCRGCSKPLCCSCALLDSSHSELKCDISAEIQQRQEELDAMTQARQEQDSAFGAVHAQMHAAVGQLGRARAETEELIRERVRQVVAHVRAQERELLEAVDARYQRDYEEMASRLGRLDAVLQRIRTGSALVQRMKCYASDQEVLDMHGFLRQALCRLRQEEPQSLQAAVRTDGFDEFKVRLQDLSSCITQGKDAAVSKKASPEAASTPRDPIDVDLPEEAERVKAQVQALGLAEAQPMAVVQSVPGAHPVPVYAFSIKGPSYGEDVSNTTTAQKRKCSQTQCPRKVIKMESEEGKEARLARSSPEQPRPSTSKAVSPPHLDGPPSPRSPVIGSEVFLPNSNHVASGAGEAEERVVVISSSEDSDAENSSSRELDDSSSESSDLQLEGPSTLRVLDENLADPQAEDRPLVFFDLKIDNESGFSWGYPHPFLI |  | 75.8%
6 | full-length PML V123R, mammalian two-hybrid fusions (natural protein, human, UniProt P29590-5 1-633, looked up, PML (TRIM19) isoform IV, full length, V123R; source: HeLa Pml-/- cells, transfected, mammalian two-hybrid fusion) MEPAPARSPRPQQDPARPQEPTMPPPETPSEGRQPSPSPSPTERAPASEEEFQFLRCQQCQAEAKCPKLLPCLHTLCSGCLEASGMQCPICQAPWPLGADTPALDNVFFESLQRRLSVYRQIRDAQAVCTRCKESADFWCFECEQLLCAKCFEAHQWFLKHEARPLAELRNQSVREFLDGTRKTNNIFCSNPNHRTPTLTSIYCRGCSKPLCCSCALLDSSHSELKCDISAEIQQRQEELDAMTQALQEQDSAFGAVHAQMHAAVGQLGRARAETEELIRERVRQVVAHVRAQERELLEAVDARYQRDYEEMASRLGRLDAVLQRIRTGSALVQRMKCYASDQEVLDMHGFLRQALCRLRQEEPQSLQAAVRTDGFDEFKVRLQDLSSCITQGKDAAVSKKASPEAASTPRDPIDVDLPEEAERVKAQVQALGLAEAQPMAVVQSVPGAHPVPVYAFSIKGPSYGEDVSNTTTAQKRKCSQTQCPRKVIKMESEEGKEARLARSSPEQPRPSTSKAVSPPHLDGPPSPRSPVIGSEVFLPNSNHVASGAGEAEERVVVISSSEDSDAENSSSRELDDSSSESSDLQLEGPSTLRVLDENLADPQAEDRPLVFFDLKIDNESGFSWGYPHPFLI |  | 18.5%
7 | full-length PML F177R, mammalian two-hybrid fusions (natural protein, human, UniProt P29590-5 1-633, looked up, PML (TRIM19) isoform IV, full length, F177R; source: HeLa Pml-/- cells, transfected, mammalian two-hybrid fusion) MEPAPARSPRPQQDPARPQEPTMPPPETPSEGRQPSPSPSPTERAPASEEEFQFLRCQQCQAEAKCPKLLPCLHTLCSGCLEASGMQCPICQAPWPLGADTPALDNVFFESLQRRLSVYRQIVDAQAVCTRCKESADFWCFECEQLLCAKCFEAHQWFLKHEARPLAELRNQSVRERLDGTRKTNNIFCSNPNHRTPTLTSIYCRGCSKPLCCSCALLDSSHSELKCDISAEIQQRQEELDAMTQALQEQDSAFGAVHAQMHAAVGQLGRARAETEELIRERVRQVVAHVRAQERELLEAVDARYQRDYEEMASRLGRLDAVLQRIRTGSALVQRMKCYASDQEVLDMHGFLRQALCRLRQEEPQSLQAAVRTDGFDEFKVRLQDLSSCITQGKDAAVSKKASPEAASTPRDPIDVDLPEEAERVKAQVQALGLAEAQPMAVVQSVPGAHPVPVYAFSIKGPSYGEDVSNTTTAQKRKCSQTQCPRKVIKMESEEGKEARLARSSPEQPRPSTSKAVSPPHLDGPPSPRSPVIGSEVFLPNSNHVASGAGEAEERVVVISSSEDSDAENSSSRELDDSSSESSDLQLEGPSTLRVLDENLADPQAEDRPLVFFDLKIDNESGFSWGYPHPFLI |  | 45.1%
8 | full-length PML V123R/L178R, mammalian two-hybrid fusions (natural protein, human, UniProt P29590-5 1-633, looked up, PML (TRIM19) isoform IV, full length, V123R and L178R; source: HeLa Pml-/- cells, transfected, mammalian two-hybrid fusion) MEPAPARSPRPQQDPARPQEPTMPPPETPSEGRQPSPSPSPTERAPASEEEFQFLRCQQCQAEAKCPKLLPCLHTLCSGCLEASGMQCPICQAPWPLGADTPALDNVFFESLQRRLSVYRQIRDAQAVCTRCKESADFWCFECEQLLCAKCFEAHQWFLKHEARPLAELRNQSVREFRDGTRKTNNIFCSNPNHRTPTLTSIYCRGCSKPLCCSCALLDSSHSELKCDISAEIQQRQEELDAMTQALQEQDSAFGAVHAQMHAAVGQLGRARAETEELIRERVRQVVAHVRAQERELLEAVDARYQRDYEEMASRLGRLDAVLQRIRTGSALVQRMKCYASDQEVLDMHGFLRQALCRLRQEEPQSLQAAVRTDGFDEFKVRLQDLSSCITQGKDAAVSKKASPEAASTPRDPIDVDLPEEAERVKAQVQALGLAEAQPMAVVQSVPGAHPVPVYAFSIKGPSYGEDVSNTTTAQKRKCSQTQCPRKVIKMESEEGKEARLARSSPEQPRPSTSKAVSPPHLDGPPSPRSPVIGSEVFLPNSNHVASGAGEAEERVVVISSSEDSDAENSSSRELDDSSSESSDLQLEGPSTLRVLDENLADPQAEDRPLVFFDLKIDNESGFSWGYPHPFLI |  | 33.1%
9 | full-length PML V123R/F177R, mammalian two-hybrid fusions (natural protein, human, UniProt P29590-5 1-633, looked up, PML (TRIM19) isoform IV, full length, V123R and F177R; source: HeLa Pml-/- cells, transfected, mammalian two-hybrid fusion) MEPAPARSPRPQQDPARPQEPTMPPPETPSEGRQPSPSPSPTERAPASEEEFQFLRCQQCQAEAKCPKLLPCLHTLCSGCLEASGMQCPICQAPWPLGADTPALDNVFFESLQRRLSVYRQIRDAQAVCTRCKESADFWCFECEQLLCAKCFEAHQWFLKHEARPLAELRNQSVRERLDGTRKTNNIFCSNPNHRTPTLTSIYCRGCSKPLCCSCALLDSSHSELKCDISAEIQQRQEELDAMTQALQEQDSAFGAVHAQMHAAVGQLGRARAETEELIRERVRQVVAHVRAQERELLEAVDARYQRDYEEMASRLGRLDAVLQRIRTGSALVQRMKCYASDQEVLDMHGFLRQALCRLRQEEPQSLQAAVRTDGFDEFKVRLQDLSSCITQGKDAAVSKKASPEAASTPRDPIDVDLPEEAERVKAQVQALGLAEAQPMAVVQSVPGAHPVPVYAFSIKGPSYGEDVSNTTTAQKRKCSQTQCPRKVIKMESEEGKEARLARSSPEQPRPSTSKAVSPPHLDGPPSPRSPVIGSEVFLPNSNHVASGAGEAEERVVVISSSEDSDAENSSSRELDDSSSESSDLQLEGPSTLRVLDENLADPQAEDRPLVFFDLKIDNESGFSWGYPHPFLI |  | 39.1%
10 | MBP-PML_(46–287) (domain or fragment, human, UniProt P29590 46-287, looked up, PML (TRIM19), human, residues 46-287; source: E. coli BL21(DE3), purified; not shown: MBP, N-terminal, kept) PASEEEFQFLRCQQCQAEAKCPKLLPCLHTLCSGCLEASGMQCPICQAPWPLGADTPALDNVFFESLQRRLSVYRQIVDAQAVCTRCKESADFWCFECEQLLCAKCFEAHQWFLKHEARPLAELRNQSVREFLDGTRKTNNIFCSNPNHRTPTLTSIYCRGCSKPLCCSCALLDSSHSELKCDISAEIQQRQEELDAMTQALQEQDSAFGAVHAQMHAAVGQLGRARAETEELIRERVRQVV | binds | 
